How the values were obtained:
CD33 [1] = biological target: T1, CD33 (UniProt P20138 18-364, limits assumed); test: flow cytometry, MOLM-13 cells, anti-His-FITC detection
T1 construct: whole, on cells; also called Siglec-3; CD33 on MOLM-13 cells
Protocol: (§1) MOLM-13 cells were incubated with different CD33 BRIDGE variants at saturating concentrations. […] The MFI intensity correlates with the number of secondary antibodies bound to the CD33 BRIDGE variants that are only detected if they are bound to the MOLM-13 cells. MFI: median fluorescence intensity. BLItz: Bio-Layer interferometry (BLI) technology using HIS-tag identification tips. […] The higher the MFIR, the stronger the binding.

nfP2X7 CAR 1 [2] = biological target: T2, nfP2X7 CAR 1; test: flow cytometry, CAR T cells, anti-His-FITC, EGFR+ over EGFR- cells
T2 construct: Expressed on T cells with truncated EGFR as marker gene; also called anti-nfP2X7 receptor CAR 1; nfP2X7 targeted CAR on EGFR+ T cells
Protocol: (§2) nfP2X₇ CAR T cells were incubated with different BRiDGE variants at saturating concentrations. […] The MFI intensity correlates with the number of secondary bound antibodies bound to the BRiDGEs that are only detected if they are bound to the CAR T cells. EGFR was used as a marker gene to detect the CAR expression. Thus, the EGFR+ T cell population was defined as the CAR expressing cells and the EGFR− T cell population was defined as the CAR negative subset. MFI: median fluorescence intensity. EGFR: epidermal growth factor receptor. BLItz: Bio-Layer interferometry (BLI) technology using HIS-tag identification tips. HIS-tag MFI Ratio: relative index that is calculated by the testing condition MFI divided by the control MFI, which corresponds to the MFI measured on EGFR+ T cells (defined as CAR positive cells) divided by the MFI measured on the EGFR− T cells (defined as CAR negative cells). […] The higher the MFIR, the stronger the binding.

nfP2X7 CAR 1 [3] = biological target: T2, nfP2X7 CAR 1; test: flow cytometry, nfP2X7 CAR T cells (EGFR+), anti-His-FITC detection
Protocol: as §2

nfP2X7 CAR 1 [4] = biological target: T2, nfP2X7 CAR 1; test: flow cytometry, CAR T cells, anti-His-FITC, EGFR+ MFI over background 0.4
Protocol: as §2

CD33 [5] = biological target: T1, CD33; test: flow cytometry, MOLM-13 cells, anti-His-FITC detection, ratio to no bridge
Protocol: as §1

T1 sequence (P20138 18-364 limits assumed): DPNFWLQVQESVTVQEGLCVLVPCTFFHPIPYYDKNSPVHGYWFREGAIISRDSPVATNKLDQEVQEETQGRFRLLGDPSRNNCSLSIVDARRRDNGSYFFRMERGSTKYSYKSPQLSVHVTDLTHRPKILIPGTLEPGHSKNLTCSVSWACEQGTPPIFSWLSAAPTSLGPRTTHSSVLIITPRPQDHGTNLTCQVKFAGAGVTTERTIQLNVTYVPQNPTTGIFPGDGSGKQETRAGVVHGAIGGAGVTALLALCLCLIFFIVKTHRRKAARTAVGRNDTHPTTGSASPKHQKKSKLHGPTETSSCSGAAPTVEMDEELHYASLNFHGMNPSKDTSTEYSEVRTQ

B1: CD33 BRIDGE variant B26 (Fab, V domains shown)
VH: QVQLVQSGAEVKKPGSSVKVSCKASGYTFTDYNMHWVRQAPGQGLEWIGYIYPYNGGTGYNQKFKSKATITADESTNTAYMELSSLRSEDTAVYYCARGRPAMDYWGQGTLVTVSS
VL: DIQMTQSPSSLSASVGDRVTITCRASESVDNYGISFMNWFQQKPGKAPKLLIYAASNQGSGVPSRFSGSGSGTDFTLTISSLQPDDFATYYCQQSKEVPWTFGQGTKVEIKR
notes: Lintuzumab-based Fab bridging molecule
MFI HisTag FITC (CD33 [1]): 5.75 | HisTag MFI Ratio of EGFR+/EGFR- (nfP2X7 CAR 1 [2]): 2.8 | MFI HisTag FITC in EGFR+ Population (nfP2X7 CAR 1 [3]): 1.22 | HisTag MFI Ratio (background 0.4) (nfP2X7 CAR 1 [4]): 3.1 | MFIR HisTag FITC (CD33 [5]): 8.58

B2: CD33 PURIFIED BRIDGE (Fab, V domains shown)
VH: B1 VH
VL: B1 VL
notes: also called old variant; original E200 CD33 Fab bridging molecule derived from lintuzumab
MFI HisTag FITC (CD33 [1]): 7.12 | HisTag MFI Ratio of EGFR+/EGFR- (nfP2X7 CAR 1 [2]): 4 | MFI HisTag FITC in EGFR+ Population (nfP2X7 CAR 1 [3]): 1.58 | HisTag MFI Ratio (background 0.4) (nfP2X7 CAR 1 [4]): 4 | MFIR HisTag FITC (CD33 [5]): 10.6

B3: CD33 BRIDGE variant B27 (Fab)
light: DFPGHNYTTRNILPGLNITSGGGGSEPKSSDKTHTGSDIQMTQSPSSLSASVGDRVTITCRASESVDNYGISFMNWFQQKPGKAPKLLIYAASNQGSGVPSRFSGSGSGTDFTLTISSLQPDDFATYYCQQSKEVPWTFGQGTKVEIKRTVAAPSVFIFPPSDEQLKSGTASVVCLLNNFYPREAKVQWKVDNALQSGNSQESVTEQDSKDSTYSLSSTLTLSKADYEKHKVYACEVTHQGLSSPVTKSFNRGECHHHHHH
heavy: QVQLVQSGAEVKKPGSSVKVSCKASGYTFTDYNMHWVRQAPGQGLEWIGYIYPYNGGTGYNQKFKSKATITADESTNTAYMELSSLRSEDTAVYYCARGRPAMDYWGQGTLVTVSSASTKGPSVFPLAPSSKSTSGGTAALGCLVKDYFPEPVTVSWNSGALTSGVHTFPAVLQSSGLYSLSSVVTVPSSSLGTQTYICNVNHKPSNTKVDKKVEPKSCHHHHHH
notes: as for B1
MFI HisTag FITC (CD33 [1]): 5.55 | HisTag MFI Ratio of EGFR+/EGFR- (nfP2X7 CAR 1 [2]): 2.8 | MFI HisTag FITC in EGFR+ Population (nfP2X7 CAR 1 [3]): 1.2 | HisTag MFI Ratio (background 0.4) (nfP2X7 CAR 1 [4]): 3 | MFIR HisTag FITC (CD33 [5]): 8.28

B4: CD33 BRIDGE variant B34 (Fab)
light: DFPGHNYTTRNILPGLNITSTFHKTSGSGKEPKSSDKTHTGGGGSDIQMTQSPSSLSASVGDRVTITCRASESVDNYGISFMNWFQQKPGKAPKLLIYAASNQGSGVPSRFSGSGSGTDFTLTISSLQPDDFATYYCQQSKEVPWTFGQGTKVEIKRTVAAPSVFIFPPSDEQLKSGTASVVCLLNNFYPREAKVQWKVDNALQSGNSQESVTEQDSKDSTYSLSSTLTLSKADYEKHKVYACEVTHQGLSSPVTKSFNRGECHHHHHH
heavy: B3 heavy
notes: as for B1
MFI HisTag FITC (CD33 [1]): 6.98 | HisTag MFI Ratio of EGFR+/EGFR- (nfP2X7 CAR 1 [2]): 3 | MFI HisTag FITC in EGFR+ Population (nfP2X7 CAR 1 [3]): 1.31 | HisTag MFI Ratio (background 0.4) (nfP2X7 CAR 1 [4]): 3.3 | MFIR HisTag FITC (CD33 [5]): 10.4

B5: CD33 BRIDGE variant B31 (Fab)
light: DFPGHNYTTRNILPGLNITSEPKSSDKTHTGGGGSDIQMTQSPSSLSASVGDRVTITCRASESVDNYGISFMNWFQQKPGKAPKLLIYAASNQGSGVPSRFSGSGSGTDFTLTISSLQPDDFATYYCQQSKEVPWTFGQGTKVEIKRTVAAPSVFIFPPSDEQLKSGTASVVCLLNNFYPREAKVQWKVDNALQSGNSQESVTEQDSKDSTYSLSSTLTLSKADYEKHKVYACEVTHQGLSSPVTKSFNRGECHHHHHH
heavy: B3 heavy
notes: as for B1
MFI HisTag FITC (CD33 [1]): 7.09 | HisTag MFI Ratio of EGFR+/EGFR- (nfP2X7 CAR 1 [2]): 3 | MFI HisTag FITC in EGFR+ Population (nfP2X7 CAR 1 [3]): 1.34 | HisTag MFI Ratio (background 0.4) (nfP2X7 CAR 1 [4]): 3.4 | MFIR HisTag FITC (CD33 [5]): 10.6

B6: CD33 BRIDGE variant B35 (Fab)
light: DFPGHNYTTRNILPGLNITSTFHKTSGSGKGSEPKSSDKTHTGGGGSDIQMTQSPSSLSASVGDRVTITCRASESVDNYGISFMNWFQQKPGKAPKLLIYAASNQGSGVPSRFSGSGSGTDFTLTISSLQPDDFATYYCQQSKEVPWTFGQGTKVEIKRTVAAPSVFIFPPSDEQLKSGTASVVCLLNNFYPREAKVQWKVDNALQSGNSQESVTEQDSKDSTYSLSSTLTLSKADYEKHKVYACEVTHQGLSSPVTKSFNRGECHHHHHH
heavy: B3 heavy
notes: as for B1
MFI HisTag FITC (CD33 [1]): 6.62 | HisTag MFI Ratio of EGFR+/EGFR- (nfP2X7 CAR 1 [2]): 3.8 | MFI HisTag FITC in EGFR+ Population (nfP2X7 CAR 1 [3]): 2.15 | HisTag MFI Ratio (background 0.4) (nfP2X7 CAR 1 [4]): 5.4 | MFIR HisTag FITC (CD33 [5]): 9.88

B7: CD33 BRIDGE variant B33 (Fab)
light: DFPGHNYTTRNILPGLNITSGGGGSEPKSSDKTHTGGGGSDIQMTQSPSSLSASVGDRVTITCRASESVDNYGISFMNWFQQKPGKAPKLLIYAASNQGSGVPSRFSGSGSGTDFTLTISSLQPDDFATYYCQQSKEVPWTFGQGTKVEIKRTVAAPSVFIFPPSDEQLKSGTASVVCLLNNFYPREAKVQWKVDNALQSGNSQESVTEQDSKDSTYSLSSTLTLSKADYEKHKVYACEVTHQGLSSPVTKSFNRGECHHHHHH
heavy: B3 heavy
notes: as for B1
MFI HisTag FITC (CD33 [1]): 6.96 | HisTag MFI Ratio of EGFR+/EGFR- (nfP2X7 CAR 1 [2]): 3.4 | MFI HisTag FITC in EGFR+ Population (nfP2X7 CAR 1 [3]): 1.69 | HisTag MFI Ratio (background 0.4) (nfP2X7 CAR 1 [4]): 4.2 | MFIR HisTag FITC (CD33 [5]): 10.4

B8: CD33 BRIDGE variant B29 (Fab)
light: DFPGHNYTTRNILPGLNITSTFHKTSGSGKGSEPKSSDKTHTGSDIQMTQSPSSLSASVGDRVTITCRASESVDNYGISFMNWFQQKPGKAPKLLIYAASNQGSGVPSRFSGSGSGTDFTLTISSLQPDDFATYYCQQSKEVPWTFGQGTKVEIKRTVAAPSVFIFPPSDEQLKSGTASVVCLLNNFYPREAKVQWKVDNALQSGNSQESVTEQDSKDSTYSLSSTLTLSKADYEKHKVYACEVTHQGLSSPVTKSFNRGECHHHHHH
heavy: B3 heavy
notes: as for B1
MFI HisTag FITC (CD33 [1]): 5.38 | HisTag MFI Ratio of EGFR+/EGFR- (nfP2X7 CAR 1 [2]): 3.4 | MFI HisTag FITC in EGFR+ Population (nfP2X7 CAR 1 [3]): 1.73 | HisTag MFI Ratio (background 0.4) (nfP2X7 CAR 1 [4]): 4.3 | MFIR HisTag FITC (CD33 [5]): 8.03

B9: CD33 BRIDGE variant B30 (Fab)
light: DFPGHNYTTRNILPGLNITSTFHKTSGSGKGGGGSEPKSSDKTHTGSDIQMTQSPSSLSASVGDRVTITCRASESVDNYGISFMNWFQQKPGKAPKLLIYAASNQGSGVPSRFSGSGSGTDFTLTISSLQPDDFATYYCQQSKEVPWTFGQGTKVEIKRTVAAPSVFIFPPSDEQLKSGTASVVCLLNNFYPREAKVQWKVDNALQSGNSQESVTEQDSKDSTYSLSSTLTLSKADYEKHKVYACEVTHQGLSSPVTKSFNRGECHHHHHH
heavy: B3 heavy
notes: as for B1
MFI HisTag FITC (CD33 [1]): 6.29 | HisTag MFI Ratio of EGFR+/EGFR- (nfP2X7 CAR 1 [2]): 3.3 | MFI HisTag FITC in EGFR+ Population (nfP2X7 CAR 1 [3]): 1.63 | HisTag MFI Ratio (background 0.4) (nfP2X7 CAR 1 [4]): 4.1 | MFIR HisTag FITC (CD33 [5]): 9.39

B10: CD33 BRIDGE variant B32 (Fab)
light: DFPGHNYTTRNILPGLNITSGSEPKSSDKTHTGGGGSDIQMTQSPSSLSASVGDRVTITCRASESVDNYGISFMNWFQQKPGKAPKLLIYAASNQGSGVPSRFSGSGSGTDFTLTISSLQPDDFATYYCQQSKEVPWTFGQGTKVEIKRTVAAPSVFIFPPSDEQLKSGTASVVCLLNNFYPREAKVQWKVDNALQSGNSQESVTEQDSKDSTYSLSSTLTLSKADYEKHKVYACEVTHQGLSSPVTKSFNRGECHHHHHH
heavy: B3 heavy
notes: as for B1
MFI HisTag FITC (CD33 [1]): 6.69 | HisTag MFI Ratio of EGFR+/EGFR- (nfP2X7 CAR 1 [2]): 3.3 | MFI HisTag FITC in EGFR+ Population (nfP2X7 CAR 1 [3]): 1.59 | HisTag MFI Ratio (background 0.4) (nfP2X7 CAR 1 [4]): 4 | MFIR HisTag FITC (CD33 [5]): 9.99

B11: CD33 BRIDGE variant B36 (Fab)
light: DFPGHNYTTRNILPGLNITSTFHKTSGSGKGGGGSEPKSSDKTHTGGGGSDIQMTQSPSSLSASVGDRVTITCRASESVDNYGISFMNWFQQKPGKAPKLLIYAASNQGSGVPSRFSGSGSGTDFTLTISSLQPDDFATYYCQQSKEVPWTFGQGTKVEIKRTVAAPSVFIFPPSDEQLKSGTASVVCLLNNFYPREAKVQWKVDNALQSGNSQESVTEQDSKDSTYSLSSTLTLSKADYEKHKVYACEVTHQGLSSPVTKSFNRGECHHHHHH
heavy: B3 heavy
notes: as for B1
MFI HisTag FITC (CD33 [1]): 6.72 | HisTag MFI Ratio of EGFR+/EGFR- (nfP2X7 CAR 1 [2]): 3.3 | MFI HisTag FITC in EGFR+ Population (nfP2X7 CAR 1 [3]): 1.65 | HisTag MFI Ratio (background 0.4) (nfP2X7 CAR 1 [4]): 4.1 | MFIR HisTag FITC (CD33 [5]): 10

Reference: patent publication US20250281611A1 (BIOSCEPTRE AUST, published 2025)
